Positions count from the first letter of the chain named.
T1: thermolysin-cleaved EBOV GP on Jurkat-GP cells (cleaved GP) (Zaire ebolavirus, Makona (GP1 core …, strain))
T1 chain 1: not shown
T1 chain 2: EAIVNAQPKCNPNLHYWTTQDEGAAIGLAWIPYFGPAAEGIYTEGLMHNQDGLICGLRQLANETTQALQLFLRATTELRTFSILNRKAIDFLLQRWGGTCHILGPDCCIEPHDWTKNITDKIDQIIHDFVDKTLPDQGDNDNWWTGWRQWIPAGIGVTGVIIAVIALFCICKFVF

B1: 5.6.c3557 (antibody, V domains shown)
VH: QVQLVESGGGVVQPGRSLRLSCAASGFSITNYAMHWVRQAPGRGLEWVALISYDGINQYYADSVKGRFTFSRDNSKNTLYLQMNSLRLDDTAVYYCARDPASPSDIFQDAFDIWGQGTTVIVSS
VL: DIQMTQSPSSLSASVGDRVTITCRASQDISGWLAWYQQKPEKAPRSLIYATSSLQSGVPSRFSGSGSGTDFTLTISSLQPEDFATYYCQQYHSYPLTFGGGTKIQIK
B2: 5.6.c3567 (antibody, V domains shown)
VH: EVQLVESGGVVVQPGGSLRLSCAASGFTFDDYTMHWVRQVPGKGPEWVSLITWDGAHTYYADSVKGRFTISRDNSKNSLYLQMNSLRTEDTALYFCARDTAGGAFWSGYPDYWGQGTLVTVSS
VL: DIQMTQSPSSLSASVGDRVTITCRASQSISSYLIWYQQKPGKVPKVLIYGASSLQSGVPSRFSGSGSGTDFTLTISSLQPEDFATYYCQQSHSIPYTFGQGTKLEIK
B3: 5.6.c4011 (antibody, V domains shown)
VH: QVQLQESGPGVVKPSETLSLTCTVSGASMTGYYWSWIRQPPGKGLEWIGYIFYSGSTNYNPSLKSRATISVDTSKKQFSLKLSSVTAADTAVYYCARSVVVIENDAFDIWGQGTMVTVSS
VL: B2 VL with I29T, S30T, I34N, V43A, V46L, Y49F, G50A, S53T, H92Y, I94A
B4: 5.6.c4013 (antibody, V domains shown)
VH: EVQLVESGGDLVQPGGSLRLSCAASGFTVNANYLGWVRQTPGKGLEWVSLIYSGSGSTYYADSVKGRFTLSRDSSKNTLFLHMNSLRPEDTAVYYCARAGGVVVTAIRTTFDYWGRGTLVTVSS
VL: DIQMTQSPSTLSASVGDRVTITCRASQSISRWLAWYQQKPGKAPKLLIYRASSLQNGVPSRFSGSGSGTEFTLTISGLQPDDFGIYYCQEYSSRYTFGQGTQLEIK
B5: 5.6.c4392 (antibody, V domains shown)
VH: QVQLVESGGGVVQPGRSLRLSCAASGFFFRNYGIHWVRQAPGKGLEWVAIISYDESKKYYADSVKGRFTISRDNSKNTLYLQMNSLRAEDTAVYYCAKAHPHSRWFFDSWGQGTLVTVSS
VL: NFVLTQPHSVSDSPGKTVTISCTRSSGSIATDYVQWYQQRPGSAPTLVIYEDNQRPSGVPNRFSGSIDSSSNSASLTISGLETEDEADYYCQSYDPTNLVFGGGTKLTVL
B6: 5.6.c3835 (antibody, V domains shown)
VH: QIQLVQSGAEVKKPGASVKVSCRASGYTFASSGISWVRQAPGQGLEWMGWINVYNGDTNSAHKLQGRVTMTTDTSTSTAYMELRSLRSDDTAVYYCTRDSFCAGSNSCYLWAGYYYYAMDVWGQGTTVTVSP
VL: EIVMTQSPATLSVSPGERATLSCRASQSLSSNLAWYQQKPGQAPRLLIYRASTRATGVPARFSGSGSGTEFTLIISNLQSEDFAVYYCQQFQNWPRTFGQGTKVEIK
B7: 5.6.c4395 (antibody, V domains shown)
VH: EVQLVESGGGLVQPGGSLRLSCAASGFTFSTYEMNWVRQAPGKGLEWIAFIDDGGSTINYADSVKGRFTVSRDNAKNSLYLQMNSLRADDTAIYYCARVMTTSFYYYGVDVWGQGTTVTVSS
VL: DIQMTQSPSIVSASVGDRVTITCRASQGVSYWLAWYQQKPGKAPKLLIYAASSLQSGVPSRFSGSGSGTDFTLTISSLQPEDFATYYCQQAHSFPWTFGQGTKVEMK
B8: 5.6.c4471 (antibody, V domains shown)
VH: QIQLVQSGTEVKKPGASVKVSCTASGYTFNNYAITWVRQAPGQGLEWMGWINPYNGDTTYAQKLQGRITMTTGRSTSTAYMDLRSLTSGDTAVYYCARGGAVTDLYFSYVMDVWGQGTTVSVSS
VL: B7 VL with I10S, G28D, Y36F, K45E, Y49H, S76N, A91S, M106I

Molecular target: EBOV GP ectodomain residues 1-636 (GPec) (Zaire ebolavirus, strain  …, UniProt Q05320)

Binder | binding result
B1 | binds
B2 | binds
B3 | binds
B4 | binds
B5 | binds
B6 | binds
B7 | binds
B8 | binds

Molecular target: T1, thermolysin-cleaved EBOV GP on …

Binder | binding result
B1 | binds
B2 | binds
B3 | binds
B4 | binds
B5 | binds
B6 | binds
B7 | binds
B8 | binds

Reference: publication PMC6908968 (Cell, 2019)
